Test results from US20260152555A1 (HUAHUI HEALTH, published 2026).

What was measured:
[1] = target: T1, hCD112R-ECD-His6-Avi (human, UniProt Q6DKI7 42-172, biotinylated (Avi tag) in the ELISA assays); experiment: ELISA-based competition, biotinylated hCD112R-ECD-His6-Avi on streptavidin, competitor hCD112-ECD-mFc at 0.1 ug/ml
T1 construct: range 42-172; Expressed in HEK 293F cells; Analyte in SPR, and captured on streptavidin in ELISA; also called biotinylated hCD112R-ECD-His6-Avi; not shown: C-terminal His6-Avi tag
T1 sequence (looked up): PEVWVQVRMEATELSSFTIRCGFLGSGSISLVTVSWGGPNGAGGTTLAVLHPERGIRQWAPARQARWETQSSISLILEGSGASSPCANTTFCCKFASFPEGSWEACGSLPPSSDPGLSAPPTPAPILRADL
Method: Biotinylated hCD112R-ECD-His₆-Avi protein antigen was captured with streptavidin (Sigma) coated 96-well plates (Nunc, MaxiSorp™). H733 serially diluted in 2% milk/PBS containing 0.1 μg/ml of the hCD112-ECD-mFc protein were added to the ELISA plates to test for competitive binding between hCD112R and hCD112. The signal was measured via ligand detection using HRP-anti-mouse IgG secondary Ab (Thermo Fisher Scientific).

[2] = target: T2, E94A (human, UniProt Q6DKI7); experiment: SPR (Biacore T200), multi-cycle; H733-hIgG4 captured on anti-hFc Ab, hCD112R-ECD-mFc variant injected (3.125-100 nM); 1:1 Langmuir [Cont') B]
T2 construct: extracellular domain, amino acids 42-172; alanine-scanning variant; also called hCD112R-ECD-mFc E94A variant
T2 sequence (Fc fusion chain, looked up): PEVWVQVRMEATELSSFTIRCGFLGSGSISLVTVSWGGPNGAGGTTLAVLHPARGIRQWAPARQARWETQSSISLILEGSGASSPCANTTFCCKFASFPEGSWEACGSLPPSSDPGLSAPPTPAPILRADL
Method: (§1) Kinetic analyses of the bindings of WT or mutated hCD112R-ECD-mFc proteins to H733 and hCD112-ECD were performed on a Biacore T200 instrument (Biacore, GE Healthcare). For the single-cycle SPR analysis, anti-mFc Ab (Thermo Fisher) was covalently attached to surfaces of a CM5 sensor chip using an amine coupling kit (GE Healthcare). WT or mutated hCD112R-ECD mFc fusion proteins were captured on the chip and H733-hIgG4 or hCD112-ECD-hFc were then injected. For the multi-cycle SPR analysis, anti-hFc Ab (Thermo Fisher) was covalently attached to surfaces of a CM5 sensor chip using an amine coupling kit (GE Healthcare). H733-hIgG4 or hCD112-ECD-hFc protein was captured on the chip and 2-fold serially diluted WT or mutated hCD112R-ECD-mFc proteins (3.125-100 nM) were then injected. Binding kinetics were evaluated using a 1:1 Langmuir binding model. The association rates (ka), dissociation rates (kd), and affinity constants (KD) were calculated using Biacore T200 evaluation software.

[3] = target: T3, L72A (human, UniProt Q6DKI7); experiment: as above
T3 construct: extracellular domain, amino acids 42-172; alanine-scanning variant; also called hCD112R-ECD-mFc L72A variant
T3 sequence (Fc fusion chain, looked up): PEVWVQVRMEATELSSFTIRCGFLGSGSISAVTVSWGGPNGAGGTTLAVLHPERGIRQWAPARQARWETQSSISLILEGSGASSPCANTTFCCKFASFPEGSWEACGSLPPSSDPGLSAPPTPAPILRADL
Method: as §1

[4] = target: T4, F139A (human, UniProt Q6DKI7); experiment: as above
T4 construct: extracellular domain, amino acids 42-172; alanine-scanning variant; also called hCD112R-ECD-mFc F139A variant
T4 sequence (Fc fusion chain, looked up): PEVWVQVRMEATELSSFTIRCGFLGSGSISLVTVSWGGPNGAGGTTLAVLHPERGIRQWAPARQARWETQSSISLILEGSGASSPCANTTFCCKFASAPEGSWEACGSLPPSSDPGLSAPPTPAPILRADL
Method: as §1

[5] = target: T1, hCD112R-ECD-His6-Avi; experiment: SPR (Biacore T200), multi-cycle, H733 captured by anti-hFc Ab, hCD112R-ECD-His6-Avi as analyte, 1:1 Langmuir model
Method: Anti-hFc Ab (Thermo Fisher) was covalently attached to surfaces of a CM5 sensor chip using an amine coupling kit (GE Healthcare). Abs at optimal concentrations were captured on the chip and the analytes (hCD112R-ECD-His₆-Avi) at single concentration or serial dilutions were then injected. Binding kinetics were evaluated using a 1:1 Langmuir binding model. The association rates (ka), dissociation rates (kd), and affinity constants (KD) were calculated using Biacore T200 evaluation software.

[6] = target: T5, human CD112R, full length, expressed on cells (YTS-hCD112R; Jurkat-NFAT-luc-hCD112R) (human, UniProt Q6DKI7 42-326); experiment: cell-based or functional assay
T5 sequence (looked up): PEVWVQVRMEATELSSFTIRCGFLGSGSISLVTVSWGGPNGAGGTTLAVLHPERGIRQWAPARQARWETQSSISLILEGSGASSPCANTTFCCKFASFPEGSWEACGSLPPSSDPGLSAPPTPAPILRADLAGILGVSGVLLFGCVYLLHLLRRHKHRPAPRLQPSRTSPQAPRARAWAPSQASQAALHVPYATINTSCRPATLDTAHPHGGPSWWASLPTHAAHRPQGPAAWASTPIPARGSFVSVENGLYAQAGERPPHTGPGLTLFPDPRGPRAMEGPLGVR

IC50 [1]: 0.87 µg/mL
Kd [2]: 0.533 nM
koff [2]: 0.000573 s⁻¹
kon [2]: 1.08e+06 M⁻¹ s⁻¹
Kd [3]: 0.469 nM
koff [3]: 0.000394 s⁻¹
kon [3]: 840000 M⁻¹ s⁻¹
Kd [4]: 0.165 nM
koff [4]: 0.000232 s⁻¹
kon [4]: 1.4e+06 M⁻¹ s⁻¹
Kd [5]: 0.65 nM
EC50 of luciferase production, Jurkat-NFAT-luc-hCD112R reporter cells with CHO-OKT3scFv_hCD112 cells [6]: 0.39 µg/mL
B1: H733 (humanized Ab composed of 733-VH-humanV2 and 733-VL-human-C91S) (antibody, human IgG4, V domains shown)
VH: QVQLVQSGAEVKKPGASVKVSCKASGYTFTNYLIEWVRQAPGQGLEWMGVINPGHGFTNYAQKFQGRVTMTRDTSTSTVYMELSSLRSEDTAVYYCARGEWDWYFDVWGQGTTVTVSS
VL: DIQLTQSPSFLSASVGDRVTITCKASQNVGTAVAWYQQKPGKAPKLLIYSTSNRYTGVPSRFSGSGSGTEFTLTISSLQPEDFATYYCQQSSSYPFTFGGGTKVEIK
notes: also called H733-hIgG4; H733 mAb (hIgG4 form)
